According to the supplement of paper PMC9112550, “Optimization of the antimicrobial peptide Bac7 by deep mutational scanning” (BMC Biology, 2022):

system: Escherichia coli TOP10; assay: shrunken log2 fold change of peptide-encoding DNA abundance (4.5 h post-induction vs induction); higher = less antimicrobial activity (less host growth inhibition); conditions: time post-induction: 4.5 h; library: site-saturation at positions 5, 18, 19, 20
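Also: peptides expressed intracellularly from a pBAD plasmid library in pooled LB shake-flask culture, induced with 0.3% L-arabinose, DNA abundance read by NGS, three biological replicates, DESeq2 with apeglm shrinkage.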

Sequence | shrunken log2 fold change
RRIRGRPPRLPRPRPRPWNLPRP | 0.000264
RRIRGRPPRLPRPRPRPWPIPRP | -0.095
RRIRGRPPRLPRPRPRPWPLPRP | 0.797
RRIRGRPPRLPRPRPRPWPNPRP | -0.0526
RRIRGRPPRLPRPRPRPWQLPRP | 0.372
RRIRGRPPRLPRPRPRPWRDPRP | 0.0475
RRIRGRPPRLPRPRPRPWSNPRP | -0.116
RRIRGRPPRLPRPRPRPWVEPRP | 0.129
RRIRGRPPRLPRPRPRPWYIPRP | -0.291
RRIRGRPPRLPRPRPRPWYVPRP | -2.24
RRIRGRPPRLPRPRPRPYAFPRP | 0.413
RRIRGRPPRLPRPRPRPYAHPRP | 0.023
RRIRGRPPRLPRPRPRPYAWPRP | 0.0018
RRIRGRPPRLPRPRPRPYCHPRP | 0.054
RRIRGRPPRLPRPRPRPYCIPRP | 0.174
RRIRGRPPRLPRPRPRPYDDPRP | -0.199
RRIRGRPPRLPRPRPRPYFHPRP | -0.462
RRIRGRPPRLPRPRPRPYFIPRP | -0.336
RRIRGRPPRLPRPRPRPYHNPRP | -0.267
RRIRGRPPRLPRPRPRPYHVPRP | -0.0512
RRIRGRPPRLPRPRPRPYIQPRP | -0.411
RRIRGRPPRLPRPRPRPYKFPRP | -0.138
RRIRGRPPRLPRPRPRPYKSPRP | -0.135
RRIRGRPPRLPRPRPRPYKVPRP | -0.0404
RRIRGRPPRLPRPRPRPYLAPRP | 0.398

Sequence | shrunken log2 fold change
RRIRGRPPRLPRPRPRPYLIPRP | -0.0775
RRIRGRPPRLPRPRPRPYMGPRP | -0.00228
RRIRGRPPRLPRPRPRPYMIPRP | 0.0548
RRIRGRPPRLPRPRPRPYMLPRP | -0.0745
RRIRGRPPRLPRPRPRPYNVPRP | -0.126
RRIRGRPPRLPRPRPRPYPIPRP | 3.7
RRIRGRPPRLPRPRPRPYPSPRP | -0.111
RRIRGRPPRLPRPRPRPYRIPRP | 0.178
RRIRGRPPRLPRPRPRPYSFPRP | 0.0271
RRIRGRPPRLPRPRPRPYSGPRP | -0.0221
RRIRGRPPRLPRPRPRPYTWPRP | 0.0845
RRIRGRPPRLPRPRPRPYWKPRP | -0.0176
RRIRHRPPRLPRPRPRPAAFPRP | 0.068
RRIRHRPPRLPRPRPRPAANPRP | -0.0763
RRIRHRPPRLPRPRPRPAARPRP | 0.168
RRIRHRPPRLPRPRPRPAAWPRP | 0.465
RRIRHRPPRLPRPRPRPAAYPRP | -0.206
RRIRHRPPRLPRPRPRPADSPRP | -0.039
RRIRHRPPRLPRPRPRPAESPRP | -0.218
RRIRHRPPRLPRPRPRPAFNPRP | -0.313
RRIRHRPPRLPRPRPRPAFVPRP | 0.113
RRIRHRPPRLPRPRPRPAFYPRP | -0.332
RRIRHRPPRLPRPRPRPAGQPRP | -0.00146
RRIRHRPPRLPRPRPRPAICPRP | -0.218
RRIRHRPPRLPRPRPRPAKGPRP | 0.0449

Sequence | shrunken log2 fold change
RRIRHRPPRLPRPRPRPAKMPRP | 0.0344
RRIRHRPPRLPRPRPRPAPAPRP | 0.289
RRIRHRPPRLPRPRPRPAPCPRP | 0.288
RRIRHRPPRLPRPRPRPAPDPRP | -0.0192
RRIRHRPPRLPRPRPRPAPNPRP | 0.497
RRIRHRPPRLPRPRPRPAQKPRP | -0.0418
RRIRHRPPRLPRPRPRPAQSPRP | -0.0382
RRIRHRPPRLPRPRPRPARYPRP | 0.0518
RRIRHRPPRLPRPRPRPASAPRP | 0.0183
RRIRHRPPRLPRPRPRPAWQPRP | 0.0329
RRIRHRPPRLPRPRPRPAYGPRP | -0.075
RRIRHRPPRLPRPRPRPCASPRP | -0.028
RRIRHRPPRLPRPRPRPCCVPRP | -0.193
RRIRHRPPRLPRPRPRPCDQPRP | -0.000946
RRIRHRPPRLPRPRPRPCEHPRP | -0.00546
RRIRHRPPRLPRPRPRPCEVPRP | -0.00674
RRIRHRPPRLPRPRPRPCFVPRP | 0.0216
RRIRHRPPRLPRPRPRPCFYPRP | -0.356
RRIRHRPPRLPRPRPRPCKFPRP | 0.0809
RRIRHRPPRLPRPRPRPCMWPRP | -0.193
RRIRHRPPRLPRPRPRPCPIPRP | -0.0539
RRIRHRPPRLPRPRPRPCPNPRP | -0.00414
RRIRHRPPRLPRPRPRPCQYPRP | 0.0163
RRIRHRPPRLPRPRPRPCRCPRP | -0.271
RRIRHRPPRLPRPRPRPCRGPRP | 0.00172

Sequence | shrunken log2 fold change
RRIRHRPPRLPRPRPRPCSAPRP | -0.473
RRIRHRPPRLPRPRPRPCSIPRP | -0.0189
RRIRHRPPRLPRPRPRPCSKPRP | -0.0875
RRIRHRPPRLPRPRPRPCTQPRP | -0.367
RRIRHRPPRLPRPRPRPCWAPRP | 0.00936
RRIRHRPPRLPRPRPRPCWMPRP | -0.032
RRIRHRPPRLPRPRPRPCYCPRP | -0.617
RRIRHRPPRLPRPRPRPDASPRP | 0.221
RRIRHRPPRLPRPRPRPDCGPRP | -0.131
RRIRHRPPRLPRPRPRPDCNPRP | -0.18
RRIRHRPPRLPRPRPRPDDHPRP | 0.0155
RRIRHRPPRLPRPRPRPDFHPRP | -0.769
RRIRHRPPRLPRPRPRPDHHPRP | 0.0587
RRIRHRPPRLPRPRPRPDHLPRP | -0.0237
RRIRHRPPRLPRPRPRPDIHPRP | -0.171
RRIRHRPPRLPRPRPRPDLNPRP | 0.015
RRIRHRPPRLPRPRPRPDMTPRP | -0.06
RRIRHRPPRLPRPRPRPDPKPRP | 0.0039
RRIRHRPPRLPRPRPRPDQLPRP | -0.51
RRIRHRPPRLPRPRPRPDREPRP | 0.0062
RRIRHRPPRLPRPRPRPDRRPRP | -0.118
RRIRHRPPRLPRPRPRPDRYPRP | -0.236
RRIRHRPPRLPRPRPRPDSDPRP | 0.0112
RRIRHRPPRLPRPRPRPDTIPRP | -0.0628
RRIRHRPPRLPRPRPRPDVCPRP | -0.258

Sequence | shrunken log2 fold change
RRIRHRPPRLPRPRPRPDVIPRP | 0.0849
RRIRHRPPRLPRPRPRPDWGPRP | 0.0592
RRIRHRPPRLPRPRPRPDYMPRP | -0.336
RRIRHRPPRLPRPRPRPEACPRP | -0.0115
RRIRHRPPRLPRPRPRPEAGPRP | 0.264
RRIRHRPPRLPRPRPRPEAHPRP | -0.00101
RRIRHRPPRLPRPRPRPECDPRP | -0.0404
RRIRHRPPRLPRPRPRPEDMPRP | -0.208
RRIRHRPPRLPRPRPRPEEEPRP | -0.0106
RRIRHRPPRLPRPRPRPEFFPRP | 0.0155
RRIRHRPPRLPRPRPRPEGTPRP | -0.0282
RRIRHRPPRLPRPRPRPEKIPRP | 0.0327
RRIRHRPPRLPRPRPRPEKSPRP | 0.0275
RRIRHRPPRLPRPRPRPELDPRP | 0.6
RRIRHRPPRLPRPRPRPELKPRP | 0.127
RRIRHRPPRLPRPRPRPELYPRP | -0.215
RRIRHRPPRLPRPRPRPEPFPRP | 0.0638
RRIRHRPPRLPRPRPRPEPTPRP | 0.179
RRIRHRPPRLPRPRPRPEQWPRP | 0.0101
RRIRHRPPRLPRPRPRPERTPRP | 0.0203
RRIRHRPPRLPRPRPRPESGPRP | -0.0115
RRIRHRPPRLPRPRPRPESRPRP | -0.17
RRIRHRPPRLPRPRPRPFAYPRP | -0.0167
RRIRHRPPRLPRPRPRPFCVPRP | -0.312
RRIRHRPPRLPRPRPRPFDFPRP | -1.21

Sequence | shrunken log2 fold change
RRIRHRPPRLPRPRPRPFDVPRP | -0.168
RRIRHRPPRLPRPRPRPFFDPRP | -0.642
RRIRHRPPRLPRPRPRPFFFPRP | 0.123
RRIRHRPPRLPRPRPRPFGGPRP | -0.0398
RRIRHRPPRLPRPRPRPFGQPRP | -0.162
RRIRHRPPRLPRPRPRPFGRPRP | -0.0135
RRIRHRPPRLPRPRPRPFHDPRP | -0.152
RRIRHRPPRLPRPRPRPFLDPRP | -0.751
RRIRHRPPRLPRPRPRPFMEPRP | -1
RRIRHRPPRLPRPRPRPFNGPRP | -0.118
RRIRHRPPRLPRPRPRPFPNPRP | -0.0913
RRIRHRPPRLPRPRPRPFQTPRP | -0.183
RRIRHRPPRLPRPRPRPFRLPRP | -0.322
RRIRHRPPRLPRPRPRPFSCPRP | -0.0244
RRIRHRPPRLPRPRPRPFSIPRP | -0.392
RRIRHRPPRLPRPRPRPFTWPRP | -0.408
RRIRHRPPRLPRPRPRPFVGPRP | -0.31
RRIRHRPPRLPRPRPRPFVRPRP | -0.073
RRIRHRPPRLPRPRPRPFWNPRP | 0.034
RRIRHRPPRLPRPRPRPFWWPRP | 0.0369
RRIRHRPPRLPRPRPRPFYTPRP | -1.02
RRIRHRPPRLPRPRPRPGAKPRP | 0.219
RRIRHRPPRLPRPRPRPGCQPRP | 0.0291
RRIRHRPPRLPRPRPRPGCTPRP | -0.514
RRIRHRPPRLPRPRPRPGDVPRP | -0.16
